Experimental data as given in patent publication US20230064978A1, “CYCLIC PEPTIDE RECEPTOR LANTHIONINE SYNTHETASE C-LIKE PROTEIN (LANCL) AND USES THEREOF” (LATERAL IP PTY LTD, priority 2019, published 2023).
Entries after “also recorded” stand apart in the source; their conditions may differ. Bridges are numbered along the chain shown (N, C = ends). Where no end group is shown, it is not given here.

Key:
Assay type in all cases: binding
[1] = target: T1, human recombinant LANCL1 (Homo sapiens, UniProt O43813); assay: In-gel fluorescence: photolabelling of recombinant LANCL1 with PAL probes, with or without excess competitor
T1 construct: purchased ABCAM ab181923; host or cells: E. coli
T1 sequence (O43813 with tags, fused parts or gaps): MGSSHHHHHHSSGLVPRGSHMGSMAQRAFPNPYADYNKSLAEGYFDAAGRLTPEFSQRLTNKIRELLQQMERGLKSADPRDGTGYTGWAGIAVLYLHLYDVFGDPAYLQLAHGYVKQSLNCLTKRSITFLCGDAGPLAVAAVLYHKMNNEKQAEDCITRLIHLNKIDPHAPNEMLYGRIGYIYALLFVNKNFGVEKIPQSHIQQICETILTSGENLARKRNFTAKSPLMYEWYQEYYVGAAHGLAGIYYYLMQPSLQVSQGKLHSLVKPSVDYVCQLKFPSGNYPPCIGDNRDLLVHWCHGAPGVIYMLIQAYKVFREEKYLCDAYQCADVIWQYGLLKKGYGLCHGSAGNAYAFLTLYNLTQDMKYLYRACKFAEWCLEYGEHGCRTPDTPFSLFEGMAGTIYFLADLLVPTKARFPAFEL
Method: The in-gel fluorescence protocol can be briefly described as follows:
1. LANCL1 Labelling, Assay on 96 Well Plate, Volume of the Reaction 40 μl in PBS
3 μg/well of human recombinant LANCL1 (ABCAM catalog no. ab181923, 1 mg/ml; expressed in E. Coli and incorporating an N-terminal 23 amino acid hexaHis tag; UniProtKB/Swiss-Prot Accession no: O43813);
• Vehicle DMSO • ±LAT8881 (a cyclic peptide fragment of human growth hormone; SEQ ID NO:1) • SEQ ID NO:1) as competitor @ 25, 50, 100 or 200 μM, pre-incubation 10 min, 4 μl of a stock solution 10-fold concentrated • ±LAT9991-PAL, LAT7771-PAL or LAT9993-PAL probes @ 1 μM, incubation 30 min at room temperature on a plate agitator (protected from light), 4 μl of a stock solution @10 μM
• Irradiation @ 365 nm 20 min (4° C., on a support containing ice) Transfer 40 μl in a clean Eppendorf tube
• Reduction: DTT 10 mM, 30 min @ 56° C. • Alkylation: Iodoacetamide 30 mM, 45 min @ RT Click-iT AzideTamra of 60 μL samples
• Acetone Precipitation −20° C. ON • Dry pellet resuspended in 30 μL 1% SDS in 50 mM Tris-HCl pH 7.5 • Photolabeled LANCL1 was tagged with tetramethylrhodamine (TAMRA) azide @100 μM TAMRA azide by copper click chemistry using the Click-iT Protein Reaction Buffer Kit (ThermoFisher Scientific) during 30 minutes • Precipitation using the chloroform-methanol method, pellet was air-dried for 10 min at room temperature, resuspended in 30 μL SDS loading buffer (Bio Rad's XT Sample Buffer containing 2.5% v/v 2-mercaptoethanol) and heated (60° C., 30 min)
• SDS-PAGE (4-15% Criterion™ TGX Stain-Free™ Protein Gel, Bio Rad) • Analyzed by in-gel fluorescence scanning using a ChemiDoc™ MP Imaging System (Bio Rad) with a green LED light as an excitation source and a BP600/20 nm emission filter

[2] = target: T2, LANCL1 (Rattus norvegicus, UniProt Q9QX69); assay: Streptavidin pull-down of probe-labelled proteins from spinal cord microsomal fraction, anti-LANCL1 Western Blot; set-up: from tissue; host or cells: rat spinal cord, microsomal fraction
T2 sequence (Q9QX69 whole entry): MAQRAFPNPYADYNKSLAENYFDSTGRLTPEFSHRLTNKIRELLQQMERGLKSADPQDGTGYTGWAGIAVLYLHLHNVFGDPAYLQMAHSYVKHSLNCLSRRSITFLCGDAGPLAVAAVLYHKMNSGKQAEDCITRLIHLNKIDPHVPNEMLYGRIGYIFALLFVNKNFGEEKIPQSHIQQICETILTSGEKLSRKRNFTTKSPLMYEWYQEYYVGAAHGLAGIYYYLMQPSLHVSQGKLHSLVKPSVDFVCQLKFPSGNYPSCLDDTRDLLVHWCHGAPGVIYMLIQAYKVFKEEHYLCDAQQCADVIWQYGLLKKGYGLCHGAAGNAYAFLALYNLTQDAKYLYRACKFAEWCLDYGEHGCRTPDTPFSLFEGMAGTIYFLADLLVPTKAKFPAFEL
Method: To confirm the LANCL1 enrichment observed by mass spectrometry sequencing pull-down experiments, commercial antibodies to LANCL1 (polyclonal rabbit anti-LANCL1, PA557107 from Invitrogen) were used to identify the presence of the LANCL1 in nerve microsome preparations. Briefly, rat spinal cord were lysed in lysate buffer, (sodium phosphate buffer 5 mM pH7.4, sucrose 0.32M+protease inhibitors (cOmplete ULTRA tablets from Roche, mini easy pack, 05892970001)). All the following steps were done on ice. The samples were homogenized, and the total extract centrifuged at 10000 g during 20 minutes. The supernatant was kept and the lysis step was repeated on the pellet adding 10 ml more of lysis buffer, followed by a new centrifugation step. This step extraction was done two times as described and the supernatants were pooled before centrifugation at 105000 g using the Ti50.2 Beckman rotor for 90 minutes at 4° C. The pellet was kept as a microsomal fraction and stored at −80° C. […] Images acquired with the ChemiDoc™ MP Imaging System were analyzed with Imagelab software (Bio-Rad).

[3] = target: T2, LANCL1; assay: Mass spectrometry of excised gel bands from PAL cross-linked homogenates (PALMS); set-up: from tissue; host or cells: nerve tissue homogenate of neuropathic animals
From the text: Having identified at least three molecular weight bands as representative of the potential targets, the 12-15 kD, 37 kD and 50 kD regions of the gel were excised, subjected to limited proteolysis and analysed by mass spectrometry to identify peptides from proteins that were differentially enriched. The detection of at least two different peptides from a protein that is enriched in the LAT9991-PAL cross-linked samples when compared to (i) the un-crosslinked samples and (ii) LAT9991-PAL in the presence of excess LAT8881 (SEQ ID NO:1; YLRIVQCRSVEGSCGF) was considered a positive signature. LAT9991-PAL, LAT9993-PAL and LAT7771-PAL were also used. LAT9993 (SEQ ID NO:41) has the amino acid sequence SCRSRPVESSC.

Substance | Binding of PAL probe to recombinant LANCL1 ([1]; in-gel fluorescence after UV (365 nm) cross-linking) | Detection of LANCL1 in eluates of probe pull-down (Western Blot) ([2]; 5 μM probe, rat spinal cord microsomal fraction) | LANCL1 bound / enriched in PAL probe cross-linked samples (mass spectrometry) ([3]; vs un-crosslinked samples (CU) and samples with excess LAT8881 (COMP), 37 kDa band) | Inhibition of LAT7771-PAL binding to recombinant LANCL1 by excess competitor ([1]; probe LAT7771-PAL, excess LAT8881) | Inhibition of LAT9991-PAL binding to recombinant LANCL1 by excess competitor ([1]; probe LAT9991-PAL, excess unlabelled competitor) | Inhibition of LAT9993S-PAL binding to recombinant LANCL1 by excess competitor ([1]; probe LAT9993S-PAL, excess LAT8881) | LANCL1 level in LAT9991-PAL pull-down eluate in presence of excess competitor ([2]; 50 μM competitor, 10-fold excess over LAT9991-PAL) | Inhibition of PAL probe binding to LANCL1 from tissue homogenates by excess competitor ([3]; probes LAT9991-PAL, LAT9993-PAL, LAT7771-PAL, excess LAT8881)
LAT9991-PAL: cyclic peptide of SEQ ID NO:12 (LAT9991) conjugated to the PAL (Photo-Activated Labelling) grouping (CRSVEGSCG; disulfide 1-8 (inferred); also: PAL group on N-terminal Cys-Arg part) | bound to recombinant LANCL1 | could only be detected in the eluates of LAT9991-PAL samples as a specifically bound protein | met the arbitrary statistical criteria for a “hit”; also recorded: enriched by several fold-changes; also recorded: bound to LANCL1 | – | – | – | – | –
YLRIVQCRSVEGSCGF [LAT8881, a cyclic peptide fragment of human growth hormone] | – | – | – | inhibited | inhibited | inhibited | reduced | inhibited
